Experimental data published in patent publication US20240417485A1.

Tests used:
[1] = target: human uPAR expressed on the cell surface (human) (UniProt Q03405); assay: flow cytometry on 293T-uPAR cells, isotype control (background)
[2] = target: human uPAR expressed on the cell surface (human) (UniProt Q03405); assay: flow cytometry on 293T cells, isotype control (background)
[3] = target: human uPAR expressed on the cell surface (human) (UniProt Q03405); assay: flow cytometry on A375 cells, isotype control (background)

human uPAR expressed on the cell surface (human), sequence (Q03405 23-305): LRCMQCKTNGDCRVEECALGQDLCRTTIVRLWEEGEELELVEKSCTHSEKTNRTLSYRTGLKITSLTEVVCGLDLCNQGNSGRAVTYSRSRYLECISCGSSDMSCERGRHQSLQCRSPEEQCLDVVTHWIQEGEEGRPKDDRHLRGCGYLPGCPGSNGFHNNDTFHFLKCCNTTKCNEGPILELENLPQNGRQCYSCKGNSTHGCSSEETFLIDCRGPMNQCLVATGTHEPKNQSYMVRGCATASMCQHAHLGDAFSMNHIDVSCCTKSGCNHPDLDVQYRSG

Substance: isotype antibody
- MFI [1]: 46.4
- MFI [2]: 62
- MFI [3]: 71.3
